Source: the supplement of paper PMC10471632, “Protein engineering and iterative multimodule optimization for vitamin B6 production in Escherichia coli” (Nature Communications, 2023)
± gives the standard deviation of the averaged measurements.

B1: library; numbered along this chain (parent)
chain: MAELLLGVNIDHIATLRNARGTAYPDPVQAAFIAEQAGADGITVHLREDRRHITDRDVRILRQTLDTRMNLEMAVTEEMLAIAVETKPHFCCLVPEKRQEVTTEGGLDVAGQRDKMRDACKRLADAGIQVSLFIDADEEQIKAAAEVGAPFIEIHTGCYADAKTDAEQAQELARIAKAATFAASLGLKVNAGHGLTYHNVKAIAAIPEMHELNIGHAIIGRAVMTGLKDAVAEMKRLMLEARG

Variants of: B1
Assay: pyridoxine titer in culture supernatant of strain expressing the PdxJ variant; higher = more PN produced (higher in vivo pathway activity of the PdxJ variant)
Details: host strain: E. coli LL006; 48 h; temperature: 37 °C; FM1.4
Method: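 Rosetta-designed single to quadruple mutants of E. coli PdxJ (PNP synthase) were expressed from pRSFDuet-1 in the engineered chassis E. coli LL006 (MG1655 ΔpdxH::pdxST, pta::Eme_pdxP). Strains were grown in 24 deep-well plates in 2 mL FM1.4 glycerol medium at 37 °C and 800 rpm for 48 h. Extracellular pyridoxine (PN) titer was quantified by HPLC with fluorescence detection; two biological replicates, with the WT pdxJ strain (LL137, about 0.5 mg/L) as control.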

| Variant | pyridoxine titer |
| --- | --- |
| H12M | 1.79 ± 0.07 mg/L |
| E104T A217V | 1.12 ± 0.014 mg/L |
| A23T E104T L212I | 3.44 ± 1.2 mg/L |
| A23T I218L I219V | 5.75 ± 0.16 mg/L |
| I10L A23T E104T G194Q | 0.545 ± 0.21 mg/L |
| G194C | 0.64 ± 0.33 mg/L |
| A19C A23T L212I | 3.68 ± 0.73 mg/L |
| I10L T103L I218L | 0.29 ± 0.057 mg/L |
| D11C T196C | 0.43 ± 0.028 mg/L |
| H12M A23T | 0.58 ± 0.014 mg/L |
| I10L L212I | 1.64 ± 0.24 mg/L |
| I10L T22V E104T I219L | 2.93 ± 0.16 mg/L |
| I10L A19R T22V A23T | 0.561 ± 0.17 mg/L |
| I10L | 2.82 ± 0.43 mg/L |
| I13V L212I | 1.07 ± 0.3 mg/L |
| G7L T103L E104T | 7.1 ± 0.35 mg/L |
| T196C L212I | 0.66 ± 0.014 mg/L |
| I10L I13V T196V L212I | 0.575 ± 0.077 mg/L |
| I154L | 1.72 ± 1.6 mg/L |
| I10L D11C A23T | 0.22 ± 0.057 mg/L |
| A23T G194C T196M I219G | 6.96 ± 5.8 mg/L |
| I10L A23Y V101L E104T | 0.246 ± 0.0055 mg/L |

| Variant | pyridoxine titer |
| --- | --- |
| A19Q E104T | 0.72 ± 0.028 mg/L |
| A23T E100I G194Q I219G | 2.67 ± 0.14 mg/L |
| I10L V101L | 1.46 ± 0.37 mg/L |
| V101L T103L L212I | 0.81 ± 0.014 mg/L |
| I10L A23T E104T | 6.49 ± 0.071 mg/L |
| G7L I154L | 0.82 ± 0.68 mg/L |
| G21M V44I T196C | 1.94 ± 0.23 mg/L |
| I13V H155I L212I | 0.81 ± 0.27 mg/L |
| T15I | 0.373 ± 0.14 mg/L |
| I10L A14I V101L | 0.31 ± 0.014 mg/L |
| G194C I218L | 1.33 ± 0.76 mg/L |
| E100I | 0.906 ± 0.17 mg/L |
| V101L | 1.19 ± 0.086 mg/L |
| I10L V101L E104T | 2.46 ± 2 mg/L |
| A19Q G21M | 1.17 ± 0.38 mg/L |
| I10L T22V A23T E100I | 1.17 ± 0.23 mg/L |
| T15I A23T | 0.3 ± 0.014 mg/L |
| I10L V101L E104T I219W | 1.66 ± 0.26 mg/L |
| I10L V101L E104T I219C | 0.874 ± 0.68 mg/L |
| I10L V101L E104T I219M | 0.553 ± 0.14 mg/L |
| T22V L212I | 0.55 ± 0.13 mg/L |
| D11C A23T I218L | 0.39 ± 0.17 mg/L |

| Variant | pyridoxine titer |
| --- | --- |
| I13V E104T T196C | 9.62 ± 0.33 mg/L |
| A23T Y24V | 0.39 ± 0.028 mg/L |
| I10L A23T V101L E104T | 0.257 ± 0.014 mg/L |
| A23T | 0.981 ± 0.014 mg/L |
| I13V E100I G194K L212I | 0.324 ± 0.15 mg/L |
| I219G | 1.3 ± 0.31 mg/L |
| G21M | 0.428 ± 0.049 mg/L |
| H12M T196C | 1.02 ± 0.014 mg/L |
| I13V V44L E104T L212I | 0.354 ± 0.0062 mg/L |
| A19R A23T E100I I219G | 0.244 ± 0.041 mg/L |
| T103L T196C L212I | 0.33 mg/L |
| A23T V44I V101L L212I | 8.38 ± 1.2 mg/L |
| T22V A23T | 1.74 ± 0.23 mg/L |
| I10L G21D T22V E104T | 2.44 ± 1.1 mg/L |
| I10L H155I I218L | 0.28 ± 0.028 mg/L |
| I10L G194C I218L | 1.45 ± 0.3 mg/L |
| E100I V101L L212I | 0.86 ± 0.3 mg/L |
| I13V T15V L212I | 0.41 ± 0.13 mg/L |
| L195G L212I | 0.89 ± 0.014 mg/L |
| I10L E104T G194Q I218L | 1.46 ± 0.011 mg/L |
| L195I T196C | 0.41 ± 0.014 mg/L |
| A23T G194C I219G | 0.873 ± 0.37 mg/L |

| Variant | pyridoxine titer |
| --- | --- |
| Y24I I219G | 0.95 ± 0.23 mg/L |
| G7L E104T | 0.65 ± 0.014 mg/L |
| T103L L212I A217V | 0.903 ± 0.052 mg/L |
| E100I L212I | 0.67 ± 0.47 mg/L |
| I10L I13V L212I | 3.48 ± 1.7 mg/L |
| A23T V44I T196V L212I | 1.53 ± 0.17 mg/L |
| I10L A217V | 0.48 ± 0.028 mg/L |
| G7L I218L | 0.76 mg/L |
| I10L T22V A23T G194Q | 0.91 ± 0.11 mg/L |
| A14I E104T T196C | 1.69 ± 0.75 mg/L |
| I13V H155R L212I | 0.22 ± 0.042 mg/L |
| I13V V44L E104T T196C | 0.824 ± 0.7 mg/L |
| I10L E104T | 1.1 ± 0.48 mg/L |
| A23T I218L | 1.04 ± 0.45 mg/L |
| E104T L212I | 2.65 ± 0.071 mg/L |
| T196C | 1.21 ± 0.38 mg/L |
| E104T I218L | 0.75 ± 0.085 mg/L |
| I10L G194C T196Y I218L | 0.378 ± 0.044 mg/L |
| I10L V101L E104T G194Q | 7.61 ± 0.4 mg/L |
| A19Q G21M E100I | 0.47 ± 0.23 mg/L |
| A23Y E104T G194C I218L | 0.22 ± 0.013 mg/L |
| I13V T103L L212I | 0.43 ± 0.18 mg/L |

| Variant | pyridoxine titer |
| --- | --- |
| G7W I10L I218L | 0.2 ± 0.014 mg/L |
| I10L T103L L212I | 0.43 ± 0.071 mg/L |
| I10L T22V E104T I218M | 0.757 ± 0.11 mg/L |
| I13V E104T G194Q T196C | 0.3065 ± 0.0012 mg/L |
| T103L L212I | 3 ± 0.58 mg/L |
| A23T E100I I219G | 8.72 ± 0.52 mg/L |
| I10L A23T E100I | 4.81 ± 0.11 mg/L |
| E100I V101L T196C A217M | 2 ± 0.12 mg/L |
| I10L T196C | 0.61 ± 0.028 mg/L |
| V101L T196C L212I | 7.33 ± 0.48 mg/L |
| G21M G194C | 0.6 ± 0.014 mg/L |
| V101L T196C | 2.16 ± 0.085 mg/L |
| Y24I | 0.0833 ± 0.01 mg/L |
| E100M V101L T196C | 2.12 ± 0.38 mg/L |
| E104T G194C T196Y I218L | 0.557 ± 0.059 mg/L |
| E104T G194C I218L I219L | 4.45 ± 0.41 mg/L |
| G7L H155I | 0.72 ± 0.071 mg/L |
| I10L I218L | 2.4 ± 0.35 mg/L |
